Assay: Plasma pharmacokinetics of HHC^MET in Wistar rats (sandwich ELISA)
Type: in vivo
Settings: n = 3
Method: This study was performed in order to investigate the plasma pharmacokinetics of HHC^MET in Wistar rats following subcutaneous and intramuscular administration of transient HHC^MET-linker hydrogel prodrug 32 or following subcutaneous or intravenous administration of free HHC^MET. Animals (n=3 per group) received either a single SC injection in the neck region or a single IM injection in the thigh musculature of a formulation of 32 (10 mg/kg HHC^MET equivalents) or a single SC injection in the neck region or IV injection in the tail vein of an HHC^MET formulation (10 mg/kg HHC^MET). At selected time points, 200 μL blood were collected in Li-Heparin tubes and processed to plasma by centrifugation at 3,000 g for 10 minutes at 4° C. HHC^MET concentrations in rat plasma were determined with an in-house developed sandwich ELISA setup. For capturing HHC^MET, a human CTLA-4 (AA Ala37-Ser160)-Fc Tag fusion protein (Supplier AcroBiosystem, Newark, Del.; USA, catalog no. CT4-H5255) was coated to the ELISA plate wells and read-out was performed via a rabbit anti-camelid VHH antibody conjugated with horseradish peroxidase (supplier Genscript, Piscataway, N.J., USA, catalog no. A01861-200).
Calibration standards of HHC^MET in blank plasma were prepared as follows: thawed Li-Heparin Wistar rat plasma was homogenized. The free HHC^MET formulation was spiked into blank plasma at concentrations between 96.0 ng/mL and 3.00 ng/mL with additional higher and lower anchor points. These solutions were used for the generation of a calibration curve. Calibration curves were analyzed via a 4-parameter […] fit and 1/Y weighted. Calibration curves were confirmed via separately prepared quality control standards at 10, 40 and 80 ng/mL.

B1: HHC^MET: custom made protein of SEQ ID NO:1, expressed from E. coli (protein)
chain: EVQLVESGGGLVQAGGSLRLSCAASGGTFSFYGMGWFRQAPGKEQEFVADIRTSAGRTYYADSVKGRFTISRDNAKNTVYLQMNSLKPEDTAVYYCAAEMSGISGWDYWGQGTQVTVSSGGGGSGGGSEVQLVESGGGLVQAGGSLRLSCAASGGTFSFYGMGWFRQAPGKEQEFVADIRTSAGRTYYADSVKGRFTISRDNAKNTVYLQMNSLKPEDTAVYYCAAEMSGISGWDYWGQGTQVTVSS
modifications: nanobody
mean HHC^MET concentration in plasma (intravenous, 10 mg/kg, 0.25 h): 17400 ng/mL
mean HHC^MET concentration in plasma (intravenous, 10 mg/kg, 1 h): 3530 ng/mL
mean HHC^MET concentration in plasma (intravenous, 10 mg/kg, 4 h): 1720 ng/mL
mean HHC^MET concentration in plasma (intravenous, 10 mg/kg, 24 h): 8.27 ng/mL
mean HHC^MET concentration in plasma (intravenous, 10 mg/kg, 32 h): <LLOQ
mean HHC^MET concentration in plasma (intravenous, 10 mg/kg, 48 h): <LLOQ
mean HHC^MET concentration in plasma (intravenous, 10 mg/kg, 72 h): 1.15 ng/mL
mean HHC^MET concentration in plasma (intravenous, 10 mg/kg, 96 h): <LLOQ
mean HHC^MET concentration in plasma (intravenous, 10 mg/kg, 168 h): <LLOQ
mean HHC^MET concentration in plasma (subcutaneous, 10 mg/kg HHC^MET (equivalents), 0.25 h): 2540 ng/mL
mean HHC^MET concentration in plasma (subcutaneous, 10 mg/kg HHC^MET (equivalents), 1 h): 5090 ng/mL
mean HHC^MET concentration in plasma (subcutaneous, 10 mg/kg HHC^MET (equivalents), 4 h): 2280 ng/mL
mean HHC^MET concentration in plasma (subcutaneous, 10 mg/kg HHC^MET (equivalents), 24 h): 2.60 ng/mL
mean HHC^MET concentration in plasma (subcutaneous, 10 mg/kg HHC^MET (equivalents), 32 h): <LLOQ
mean HHC^MET concentration in plasma (subcutaneous, 10 mg/kg HHC^MET (equivalents), 48 h): <LLOQ
mean HHC^MET concentration in plasma (subcutaneous, 10 mg/kg HHC^MET (equivalents), 72 h): 2.07 ng/mL
mean HHC^MET concentration in plasma (subcutaneous, 10 mg/kg HHC^MET (equivalents), 96 h): <LLOQ
mean HHC^MET concentration in plasma (subcutaneous, 10 mg/kg HHC^MET (equivalents), 168 h): <LLOQ
